Measurements reported in PMC5225881, “Open and compressed conformations of Francisella tularensis ClpP” (Proteins, 2016).
Several values for one entry are separate records, joined by “and”; a condition that tells them apart may be missing. Identical values can stand only once.

Molecular target: the molecule itself
Experiment: native gel or EMSA; purified sample applied to a native gel; conditions not given

B1: Francisella tularensis caseinolytic protease catalytic subunit P (ClpP) (enzyme)
chain: not shown
notes: also called FtClpP; FtClpP:I; copies: 14
Q: B1 was tested. Which “stoichiometry N” value did it give?
A: 7 and 14
